The values below come from patent US20140348747A1.

In the assay the target is wild-type non-luminescent polypeptide (WT fragment of residues 1-156 of NanoLuc). The assay can be described thus: cell-based or functional assay.
For the substance HT-NLpep A169E, the luminescence after complementation (relative; unit not given) came out at 0.846.

With HT-NLpep A169L, the luminescence after complementation (relative; unit not given) was 1.11.

On to HT-NLpep A169N, for which the luminescence after complementation (relative; unit not given) came to 0.911.

HT-NLpep A169R came in with a luminescence after complementation (relative; unit not given) of 0.985.

For HT-NLpep A169T, the luminescence after complementation (relative; unit not given) was 0.945.

For the substance HT-NLpep C164N, the luminescence after complementation (relative; unit not given) is 0.0874.

Turning to HT-NLpep C164T, the luminescence after complementation (relative; unit not given) turned out to be 0.0116.

HT-NLpep G157D displayed a luminescence after complementation (relative; unit not given) of 0.114.

Regarding HT-NLpep G157E, the luminescence after complementation (relative; unit not given) amounted to 0.196.

HT-NLpep G157H gave a luminescence after complementation (relative; unit not given) of 0.938.

HT-NLpep G157N gave a luminescence after complementation (relative; unit not given) of 0.641.

For HT-NLpep G157S, the luminescence after complementation (relative; unit not given) amounted to 1.99.

Substance HT-NLpep I167E returned a luminescence after complementation (relative; unit not given) of 0.277.

For HT-NLpep I167F, the luminescence after complementation (relative; unit not given) stood at 0.283.

Substance HT-NLpep I167Q had a luminescence after complementation (relative; unit not given) of 0.0178.

With HT-NLpep I167R, the luminescence after complementation (relative; unit not given) was 0.0464.

HT-NLpep I167V: the luminescence after complementation (relative; unit not given) was determined as 0.877.

HT-NLpep L163K gave a luminescence after complementation (relative; unit not given) of 0.0885.

On to HT-NLpep L163T, for which the luminescence after complementation (relative; unit not given) is 0.0259.

Turning to HT-NLpep L163V, the luminescence after complementation (relative; unit not given) was 0.173.

With HT-NLpep L163Y, the luminescence after complementation (relative; unit not given) was determined as 0.0512.

In turn, HT-NLpep R166K displayed a luminescence after complementation (relative; unit not given) of 1.09.

HT-NLpep R166N had a luminescence after complementation (relative; unit not given) of 0.103.

The substance HT-NLpep T159K had a luminescence after complementation (relative; unit not given) of 0.049.

Take HT-NLpep T159Q: the luminescence after complementation (relative; unit not given) came to 0.398.

Substance HT-NLpep T159V returned a luminescence after complementation (relative; unit not given) of 0.566.

HT-NLpep V158A registered a luminescence after complementation (relative; unit not given) of 0.135.

With HT-NLpep V158I, the luminescence after complementation (relative; unit not given) was determined as 0.608.

As for HT-NLpep V158K, the luminescence after complementation (relative; unit not given) came to 0.077.

Take HT-NLpep V158Q: the luminescence after complementation (relative; unit not given) was determined as 0.0445.

Substance HT-NLpep V158S came in with a luminescence after complementation (relative; unit not given) of 0.0487.

With HT-NLpep W161K, the luminescence after complementation (relative; unit not given) amounted to 0.0002.

HT-NLpep W161T showed a luminescence after complementation (relative; unit not given) of 0.0028.

HT-NLpep W161V: the luminescence after complementation (relative; unit not given) was determined as 0.0086.

Substance NLpep-HT A169E returned a luminescence after complementation (relative; unit not given) of 0.789.

For NLpep-HT A169L, the luminescence after complementation (relative; unit not given) is 0.905.

Regarding NLpep-HT A169N, the luminescence after complementation (relative; unit not given) is 1.78.

NLpep-HT A169R came in with a luminescence after complementation (relative; unit not given) of 0.501.

For NLpep-HT A169T, the luminescence after complementation (relative; unit not given) came to 1.37.

With NLpep-HT C164A, the luminescence after complementation (relative; unit not given) worked out at 0.0858.

In turn, NLpep-HT C164F registered a luminescence after complementation (relative; unit not given) of 13.3.

As for NLpep-HT C164H, the luminescence after complementation (relative; unit not given) was found to be 0.76.

In turn, NLpep-HT C164K yielded a luminescence after complementation (relative; unit not given) of 0.0005.

In turn, NLpep-HT C164L registered a luminescence after complementation (relative; unit not given) of 1.02.

In turn, NLpep-HT C164M registered a luminescence after complementation (relative; unit not given) of 3.26.

As for NLpep-HT C164N, the luminescence after complementation (relative; unit not given) was determined as 0.108.

Substance NLpep-HT C164Q yielded a luminescence after complementation (relative; unit not given) of 0.0211.

Turning to NLpep-HT C164S, the luminescence after complementation (relative; unit not given) was 0.0202.

Turning to NLpep-HT C164T, the luminescence after complementation (relative; unit not given) was determined as 0.0084.

In turn, NLpep-HT C164Y showed a luminescence after complementation (relative; unit not given) of 1.01.
